This note sets out measurements from article PMC7144476 (Molecular plant, 2015).

In this test the target is MBP-BSU1 (Arabidopsis, UniProt Q9LR78 1-793). In words: pull-down.
Chain of MBP-BSU1 (Q9LR78 whole entry): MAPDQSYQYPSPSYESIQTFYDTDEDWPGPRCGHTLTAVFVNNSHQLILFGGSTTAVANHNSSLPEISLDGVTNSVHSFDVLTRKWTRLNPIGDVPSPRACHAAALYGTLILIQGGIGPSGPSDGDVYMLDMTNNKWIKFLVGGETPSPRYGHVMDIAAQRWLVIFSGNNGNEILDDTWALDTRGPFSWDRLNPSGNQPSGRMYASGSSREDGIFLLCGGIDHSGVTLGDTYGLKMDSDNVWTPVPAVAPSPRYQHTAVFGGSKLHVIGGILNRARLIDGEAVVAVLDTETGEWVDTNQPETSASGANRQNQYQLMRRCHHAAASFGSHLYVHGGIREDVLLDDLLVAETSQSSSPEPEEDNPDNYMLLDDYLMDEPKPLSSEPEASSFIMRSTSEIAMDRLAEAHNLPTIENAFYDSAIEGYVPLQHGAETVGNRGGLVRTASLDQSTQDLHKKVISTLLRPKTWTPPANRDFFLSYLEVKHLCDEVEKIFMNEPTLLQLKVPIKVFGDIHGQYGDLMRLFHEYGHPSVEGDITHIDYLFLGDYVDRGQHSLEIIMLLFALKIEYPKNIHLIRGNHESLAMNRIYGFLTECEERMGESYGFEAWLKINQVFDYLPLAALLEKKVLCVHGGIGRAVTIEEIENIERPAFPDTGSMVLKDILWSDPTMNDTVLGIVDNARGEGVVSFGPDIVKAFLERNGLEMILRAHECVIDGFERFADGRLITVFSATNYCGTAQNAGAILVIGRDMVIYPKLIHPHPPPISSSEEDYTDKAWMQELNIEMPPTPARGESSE

B1: BSK1-myc (natural protein, UniProt Q944A7 1-512, looked up)
chain: MGCCQSLFSGDNPLGKDGVQPQPLSQNNHGGATTADNGGSGGASGVGGGGGGGGIPSFSEFSFADLKAATNNFSSDNIVSESGEKAPNLVYKGRLQNRRWIAVKKFTKMAWPEPKQFAEEAWGVGKLRHNRLANLIGYCCDGDERLLVAEFMPNDTLAKHLFHWENQTIEWAMRLRVGYYIAEALDYCSTEGRPLYHDLNAYRVLFDEDGDPRLSCFGLMKNSRDGKSYSTNLAYTPPEYLRNGRVTPESVTYSFGTVLLDLLSGKHIPPSHALDMIRGKNIILLMDSHLEGKFSTEEATVVVELASQCLQYEPRERPNTKDLVATLAPLQTKSDVPSYVMLGIKKQEEAPSTPQRPLSPLGEACSRMDLTAIHQILVMTHYRDDEGTNELSFQEWTQQMKDMLDARKRGDQSFREKDFKTAIDCYSQFIDVGTMVSPTVFGRRSLCYLLCDQPDAALRDAMQAQCVYPDWPTAFYMQSVALAKLNMNTDAADMLNEAAQLEEKRQRGGRGS
Take B1: the binding result is reported as “binds”.
